According to patent publication US20160068834A1 (published 2016):
Where two headings read alike, the source gives them in different places. Bridges are numbered along the chain shown (N, C = ends). Where no end group is shown, it is not given here. [ ]: non-standard residue; d: D form. The star is where a group is joined. FITC = O=C1OC2(c3ccc(O)cc3Oc3cc(O)ccc32)c2ccc(NC(=S)*)cc21; S5 = C=CCCC[C@](C)(N)C(=O)O; Nle = CCCC[C@H](N)C(=O)O

Experiments:
purified EED (Example 6) = purified EED (Example 6) (UniProt O75530 1-441); experiment: competitive fluorescence polarization; competition against FITC-EZH2(42-68)
Sequence of purified EED (Example 6) (O75530 whole entry): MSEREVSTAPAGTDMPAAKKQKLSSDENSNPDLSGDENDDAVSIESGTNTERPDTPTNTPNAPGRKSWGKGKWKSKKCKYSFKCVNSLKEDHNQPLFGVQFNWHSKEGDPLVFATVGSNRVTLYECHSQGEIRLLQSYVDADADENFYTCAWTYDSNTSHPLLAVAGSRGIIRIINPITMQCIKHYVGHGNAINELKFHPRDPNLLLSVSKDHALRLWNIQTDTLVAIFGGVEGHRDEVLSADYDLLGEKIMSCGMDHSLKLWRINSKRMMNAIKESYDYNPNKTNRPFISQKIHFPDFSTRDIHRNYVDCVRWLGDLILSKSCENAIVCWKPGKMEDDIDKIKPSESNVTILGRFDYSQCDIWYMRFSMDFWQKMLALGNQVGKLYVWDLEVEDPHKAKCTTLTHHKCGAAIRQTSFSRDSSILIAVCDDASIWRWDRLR

[1] = target: T1, C-terminal His-tagged EED (His-EED) (UniProt O75530 1-441); experiment: fluorescence polarization
T1 sequence (O75530 whole entry): as above

[2] = target: T1, C-terminal His-tagged EED (His-EED); experiment: fluorescence polarization; remark: listed apart in the source

Row | Kd [1] [nM] | Binder | also measured
1 | – | Ac-FSSNR[S5]KIL[S5]RTQILNQEWKQRRIQPV (staple 6-10) [acetyl-SAH-EZH2] | Kd (purified EED (Example 6)): 1130 nM
2 | – | Ac-FSSNR[S5]KIL[S5]RT[S5]ILN[S5]EWKQRRIQPV (staple 6-10, 13-17) [acetyl-SAH-EZH2(42-68)AC] | Kd (purified EED (Example 6)): 650 nM
3 | 528 | {FITC}-FSSNRQKILERT[S5]ILN[S5]EWKQRRIQPV (staple 13-17) [FITC-SAH-EZH2B(42-68)] | –
4 | 468 | {FITC}-FSSNR[S5]KIL[S5]RTEILNQEWKQRRIQPV (staple 6-10) [FITC-SAH-EZH2A(42-68)] | –
5 | 333 | {FITC}-S[Nle]FSSNR[S5]KIL[S5]RTEILNQEWKQRRIQPV (staple 8-12) [FITC-SAH-EZH2A(40-68)] | –
6 | 264 | {FITC}-S[Nle]FSSNRQKILERT[S5]ILN[S5]EWKQRRIQPV (staple 15-19) [FITC-SAH-EZH2B(40-68)] | –
7 | – | {FITC}-FSSNR[S5]KIL[S5]RTQILNQEWKQRRIQPV (staple 6-10) [FITC-SAH-EZH2A(42-68)E54Q] | Kd [2]: 320 nM
8 | – | {FITC}-FSSNR[S5]KIL[S5]RTQILNQQWKQRRIQPV (staple 6-10) [FITC-SAH-EZH2A(42-68)E54Q/E59Q] | Kd [2]: > 10000 nM
